According to patent US20180074053A1 (priority 2016, published 2018):
Non-standard residues stand in square brackets, D forms with d. No end group written: not given here.

Columns and labels:
MRGD = MRGD (Homo sapiens, UniProt Q8TDS7); assay: Calcium mobilization in MRGD over-expressing cells; assay type: cell-based; set-up: host or cells: ChemiScreen over-expressing cell line, given as 'HEK 293T cells (Chem-1, EMD Millipore)'; conditions: at 5 mM, highest dose used; Example 4
Procedure: Cells were grown in DMEM medium containing 10% FBS, 1× non-essential amino acids (Gibco #111450-040), 20 mM HEPES and 250 μg/mL Geneticin® (Gibco #10131-035). Cells were harvested with 0.25% Trypsin/EDTA (Gibco #25200-056), pelleted at 1,200×g for 6 minutes and resuspended in DMEM media described above minus Geneticin®. The cells were seeded at 4×10^4 cells/well/100 μL of a clear bottom/black 96-well plate and grown overnight. The calcium mobilization assays was performed using Screen Quest Fluo-8 Medium Removal Calcium Assay Kit (AAT Bioquest #36308) according to the manufacturer's protocol. Briefly, cells were washed with 100 μL volume of Hank's balanced salt solution, 20 mM HEPES, pH 7.4 and loaded with a buffer containing HBSS, 20 mM HEPES, 1× Pluronic F127 and the Fluo-8 NW dye. The cells were incubated for 30 minutes at 37° C. followed by a 30 minute room temperature incubation. Drug stocks were prepared at 100× concentration and diluted 1:33 in HBSS, 20 mM HEPES, pH 7.4 in a 96-well plate (Corning #3641). Calcium mobilization was measured using the FlexStation 3 (Molecular Devices) at excitation wavelength of 490 nm and emission wavelength of 525 nm. Fluorescence was measured for 180 seconds at 5 second intervals with the addition of compound at a 1:3 dilution after 15 seconds. Peak fluorescence values were calculated using SoftMax Pro 5 (Molecular Devices). The fluorescence values obtained from control wells without cells are subtracted from wells containing treated cells to correct for background. The ratio of fluorescence values of treated cells to vehicle control wells was used to calculate fold activity of the compounds.
MRGD cells (EMD Millipore, MA) were treated with either β-alanine, or alamandine at various concentrations (FIG. 10) and calcium mobilization was monitored using a FlexStation 3 Microplate Reader (Molecular Devices) as described in Example 4.

NMUR2 = NMUR2 (UniProt Q9GZQ4 1-415, limits assumed); assay: cell-based or functional assay
Chain of NMUR2 (Q9GZQ4 whole entry): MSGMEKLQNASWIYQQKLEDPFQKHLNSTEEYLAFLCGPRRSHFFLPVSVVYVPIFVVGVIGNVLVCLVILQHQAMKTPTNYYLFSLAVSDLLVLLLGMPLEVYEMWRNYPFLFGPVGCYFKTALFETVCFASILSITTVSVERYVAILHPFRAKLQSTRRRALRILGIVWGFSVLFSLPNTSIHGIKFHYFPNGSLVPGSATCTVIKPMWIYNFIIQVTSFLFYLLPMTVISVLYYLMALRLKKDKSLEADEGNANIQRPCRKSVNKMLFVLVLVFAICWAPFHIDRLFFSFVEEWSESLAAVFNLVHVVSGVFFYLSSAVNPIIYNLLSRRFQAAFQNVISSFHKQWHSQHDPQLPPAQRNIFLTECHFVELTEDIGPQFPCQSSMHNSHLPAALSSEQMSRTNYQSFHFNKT

[1] = molecular target: GPCR 109a, the nicotinic acid receptor (human, UniProt Q8TDS4 1-363); assay: cell-based or functional assay
Chain of GPCR 109a, the nicotinic acid receptor (Q8TDS4 whole entry): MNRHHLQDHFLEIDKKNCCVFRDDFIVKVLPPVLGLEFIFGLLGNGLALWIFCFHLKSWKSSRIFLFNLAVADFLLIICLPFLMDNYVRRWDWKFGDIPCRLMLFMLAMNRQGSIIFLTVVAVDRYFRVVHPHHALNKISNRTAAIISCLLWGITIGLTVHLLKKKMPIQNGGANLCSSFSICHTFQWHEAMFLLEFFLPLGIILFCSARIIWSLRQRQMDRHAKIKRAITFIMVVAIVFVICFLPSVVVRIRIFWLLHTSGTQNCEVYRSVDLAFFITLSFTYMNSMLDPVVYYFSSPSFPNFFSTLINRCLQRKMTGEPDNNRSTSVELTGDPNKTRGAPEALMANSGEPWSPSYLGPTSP

MCHR1 = MCHR1 (UniProt Q99705 1-353, limits assumed); assay: cell-based or functional assay
Chain of MCHR1 (Q99705 whole entry): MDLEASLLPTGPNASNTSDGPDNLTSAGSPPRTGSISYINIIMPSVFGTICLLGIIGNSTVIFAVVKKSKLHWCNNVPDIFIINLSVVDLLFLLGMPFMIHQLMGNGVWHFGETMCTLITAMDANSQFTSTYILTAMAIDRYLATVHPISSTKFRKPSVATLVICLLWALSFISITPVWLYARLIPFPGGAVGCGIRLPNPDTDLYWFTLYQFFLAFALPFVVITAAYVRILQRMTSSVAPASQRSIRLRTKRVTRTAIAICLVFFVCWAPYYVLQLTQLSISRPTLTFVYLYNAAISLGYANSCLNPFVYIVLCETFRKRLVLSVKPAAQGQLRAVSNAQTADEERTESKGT

MRGX1 = MRGX1 (UniProt Q96LB2 1-322, limits assumed); assay: cell-based or functional assay
Chain of MRGX1 (Q96LB2 whole entry): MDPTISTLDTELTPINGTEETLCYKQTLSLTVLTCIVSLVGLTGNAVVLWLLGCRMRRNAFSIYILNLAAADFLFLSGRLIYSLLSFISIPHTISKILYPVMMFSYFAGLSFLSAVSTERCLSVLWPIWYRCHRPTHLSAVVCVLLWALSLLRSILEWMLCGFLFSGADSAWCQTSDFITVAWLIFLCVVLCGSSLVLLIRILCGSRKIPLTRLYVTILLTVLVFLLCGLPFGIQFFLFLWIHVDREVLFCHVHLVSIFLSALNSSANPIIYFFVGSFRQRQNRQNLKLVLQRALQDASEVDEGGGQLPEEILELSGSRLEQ

[2] = molecular target: MAS-related G-protein-coupled receptor member D (MRGD) (human, UniProt Q8TDS7 1-321); assay: cell-based or functional assay
Chain of MAS-related G-protein-coupled receptor member D (MRGD) (Q8TDS7 whole entry): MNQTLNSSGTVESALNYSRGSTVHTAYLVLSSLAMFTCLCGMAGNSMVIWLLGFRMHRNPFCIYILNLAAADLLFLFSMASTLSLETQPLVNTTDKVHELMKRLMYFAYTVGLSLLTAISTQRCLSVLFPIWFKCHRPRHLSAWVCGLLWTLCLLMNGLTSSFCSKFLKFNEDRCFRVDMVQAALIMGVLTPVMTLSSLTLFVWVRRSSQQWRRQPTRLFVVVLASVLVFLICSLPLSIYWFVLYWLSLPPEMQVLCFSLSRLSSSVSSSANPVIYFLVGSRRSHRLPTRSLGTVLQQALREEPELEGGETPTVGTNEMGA

NMUR1 = molecular target: T1, NMUR1 (UniProt Q9HB89 1-426, limits assumed); assay: cell-based or functional assay
T1 sequence (looked up): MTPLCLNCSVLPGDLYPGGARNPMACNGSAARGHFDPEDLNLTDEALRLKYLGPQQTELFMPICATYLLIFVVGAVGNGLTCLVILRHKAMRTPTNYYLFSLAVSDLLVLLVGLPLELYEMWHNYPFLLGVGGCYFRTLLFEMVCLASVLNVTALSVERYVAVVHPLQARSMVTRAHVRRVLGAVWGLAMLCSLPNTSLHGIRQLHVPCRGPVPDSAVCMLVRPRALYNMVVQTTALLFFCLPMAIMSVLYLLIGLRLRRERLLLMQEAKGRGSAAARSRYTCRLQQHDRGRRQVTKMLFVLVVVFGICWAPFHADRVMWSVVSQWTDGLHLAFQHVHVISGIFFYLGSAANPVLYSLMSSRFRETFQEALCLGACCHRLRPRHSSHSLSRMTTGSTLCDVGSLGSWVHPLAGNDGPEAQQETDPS

MCHR2 = MCHR2 (UniProt Q969V1 1-340, limits assumed); assay: cell-based or functional assay
Chain of MCHR2 (Q969V1 whole entry): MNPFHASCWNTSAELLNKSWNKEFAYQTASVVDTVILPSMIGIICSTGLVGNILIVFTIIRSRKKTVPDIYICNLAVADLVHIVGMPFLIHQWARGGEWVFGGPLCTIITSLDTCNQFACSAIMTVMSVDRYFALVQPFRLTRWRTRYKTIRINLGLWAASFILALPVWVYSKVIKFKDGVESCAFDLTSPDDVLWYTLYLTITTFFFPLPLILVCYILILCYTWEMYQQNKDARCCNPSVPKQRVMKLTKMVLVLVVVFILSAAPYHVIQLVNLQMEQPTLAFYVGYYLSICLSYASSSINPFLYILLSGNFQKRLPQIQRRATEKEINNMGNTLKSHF

MRGX2 = molecular target: T2, MRGX2 (UniProt Q96LB1 1-330, limits assumed); assay: cell-based or functional assay
T2 sequence (looked up): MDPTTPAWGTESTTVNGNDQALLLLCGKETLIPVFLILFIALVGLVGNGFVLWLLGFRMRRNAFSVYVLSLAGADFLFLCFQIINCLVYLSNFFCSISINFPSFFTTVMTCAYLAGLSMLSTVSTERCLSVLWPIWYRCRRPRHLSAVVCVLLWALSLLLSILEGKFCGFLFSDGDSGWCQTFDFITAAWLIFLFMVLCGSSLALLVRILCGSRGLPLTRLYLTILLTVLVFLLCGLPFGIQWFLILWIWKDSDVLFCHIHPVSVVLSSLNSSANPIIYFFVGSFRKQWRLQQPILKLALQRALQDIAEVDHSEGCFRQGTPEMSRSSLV

Chain of MRGD (Q8TDS7 whole entry): as the sequence (Q8TDS7 whole entry) above

Molecule: CC(C)C[C@@H](NC(=O)CNC(=O)CN)C(=O)O
- calcium mobilization activity (MRGD): active

B1: DT-110, tripeptide glycine-glycine-D-leucine (GGdL) (peptide)
peptide: Gly-Gly-[dL]
- percent activation (calcium flux, GPCRProfiler), DT-110 @ 1.25 mM, Avg. (NMUR2): 2.4%
- percent activation (calcium flux, GPCRProfiler), DT-110 @ 1.25 mM, n1 (NMUR2): 0.9%
- percent activation (calcium flux, GPCRProfiler), DT-110 @ 1.25 mM, n2 (NMUR2): 3.9%
- percent activation (calcium flux, GPCRProfiler), DT-110 @ 12.5 mM, Avg. (NMUR2): -0.9%
- percent activation (calcium flux, GPCRProfiler), DT-110 @ 12.5 mM, n1 (NMUR2): 0.4%
- percent activation (calcium flux, GPCRProfiler), DT-110 @ 12.5 mM, n2 (NMUR2): -2.2%
- percent activation (calcium flux, GPCRProfiler), DT-110 @ 1.25 mM, Avg. [1]: -8.1%
- percent activation (calcium flux, GPCRProfiler), DT-110 @ 1.25 mM, n1 [1]: -8.1%
- percent activation (calcium flux, GPCRProfiler), DT-110 @ 1.25 mM, n2 [1]: -8%
- percent activation (calcium flux, GPCRProfiler), DT-110 @ 12.5 mM, Avg. [1]: 54.3%
- percent activation (calcium flux, GPCRProfiler), DT-110 @ 12.5 mM, n1 [1]: 52.9%
- percent activation (calcium flux, GPCRProfiler), DT-110 @ 12.5 mM, n2 [1]: 55.7%
- percent activation (calcium flux, GPCRProfiler), DT-110 @ 1.25 mM, Avg. (MCHR1): 0.4%
- percent activation (calcium flux, GPCRProfiler), DT-110 @ 1.25 mM, n1 (MCHR1): 0.2%
- percent activation (calcium flux, GPCRProfiler), DT-110 @ 1.25 mM, n2 (MCHR1): 0.7%
- percent activation (calcium flux, GPCRProfiler), DT-110 @ 12.5 mM, Avg. (MCHR1): -0.1%
- percent activation (calcium flux, GPCRProfiler), DT-110 @ 12.5 mM, n1 (MCHR1): -0.5%
- percent activation (calcium flux, GPCRProfiler), DT-110 @ 12.5 mM, n2 (MCHR1): 0.3%
- percent activation (calcium flux, GPCRProfiler), DT-110 @ 1.25 mM, Avg. (MRGX1): -1.9%
- percent activation (calcium flux, GPCRProfiler), DT-110 @ 1.25 mM, n1 (MRGX1): -1.3%
- percent activation (calcium flux, GPCRProfiler), DT-110 @ 1.25 mM, n2 (MRGX1): -2.5%
- percent activation (calcium flux, GPCRProfiler), DT-110 @ 12.5 mM, Avg. (MRGX1): -6.6%
- percent activation (calcium flux, GPCRProfiler), DT-110 @ 12.5 mM, n1 (MRGX1): -6.7%
- percent activation (calcium flux, GPCRProfiler), DT-110 @ 12.5 mM, n2 (MRGX1): -6.6%
- percent activation (calcium flux, GPCRProfiler), DT-110 @ 1.25 mM, Avg. [2]: 69.2%
- percent activation (calcium flux, GPCRProfiler), DT-110 @ 1.25 mM, n1 [2]: 76.5%
- percent activation (calcium flux, GPCRProfiler), DT-110 @ 1.25 mM, n2 [2]: 62%
- percent activation (calcium flux, GPCRProfiler), DT-110 @ 12.5 mM, Avg. [2]: 64.5%
- percent activation (calcium flux, GPCRProfiler), DT-110 @ 12.5 mM, n1 [2]: 60.7%
- percent activation (calcium flux, GPCRProfiler), DT-110 @ 12.5 mM, n2 [2]: 68.3%
- percent activation (calcium flux, GPCRProfiler), DT-110 @ 1.25 mM, Avg. (NMUR1): 0.5%
- percent activation (calcium flux, GPCRProfiler), DT-110 @ 1.25 mM, n1 (NMUR1): 1.3%
- percent activation (calcium flux, GPCRProfiler), DT-110 @ 1.25 mM, n2 (NMUR1): -0.4%
- percent activation (calcium flux, GPCRProfiler), DT-110 @ 12.5 mM, Avg. (NMUR1): -0.1%
- percent activation (calcium flux, GPCRProfiler), DT-110 @ 12.5 mM, n1 (NMUR1): -0.7%
- percent activation (calcium flux, GPCRProfiler), DT-110 @ 12.5 mM, n2 (NMUR1): 0.5%
- percent activation (calcium flux, GPCRProfiler), DT-110 @ 1.25 mM, Avg. (MCHR2): 0.5%
- percent activation (calcium flux, GPCRProfiler), DT-110 @ 1.25 mM, n1 (MCHR2): 0.1%
- percent activation (calcium flux, GPCRProfiler), DT-110 @ 1.25 mM, n2 (MCHR2): 0.8%
- percent activation (calcium flux, GPCRProfiler), DT-110 @ 12.5 mM, Avg. (MCHR2): -0.9%
- percent activation (calcium flux, GPCRProfiler), DT-110 @ 12.5 mM, n1 (MCHR2): -0.8%
- percent activation (calcium flux, GPCRProfiler), DT-110 @ 12.5 mM, n2 (MCHR2): -0.9%
- percent activation (calcium flux, GPCRProfiler), DT-110 @ 1.25 mM, Avg. (MRGX2): -0.2%
- percent activation (calcium flux, GPCRProfiler), DT-110 @ 1.25 mM, n1 (MRGX2): 0%
- percent activation (calcium flux, GPCRProfiler), DT-110 @ 1.25 mM, n2 (MRGX2): -0.4%
- percent activation (calcium flux, GPCRProfiler), DT-110 @ 12.5 mM, Avg. (MRGX2): 0%
- percent activation (calcium flux, GPCRProfiler), DT-110 @ 12.5 mM, n1 (MRGX2): 0.4%
- percent activation (calcium flux, GPCRProfiler), DT-110 @ 12.5 mM, n2 (MRGX2): -0.4%
